Assay results from the RNAGym collection of RNA variant scans (doi:10.1073/pnas.2313332121).

B1: TPR t1 (parent)
chain: GACCAAUCUGCCCUCAGAGCUCGAGAACAUCUUCGGAUGCAGAGGAGGCAGGCUUCGGUGGCGCGAUAGCGCCAACGUCCUCAACCUCCAAUGCAUCCCACCACAUGAUGAUGCCUGAAGAGCCUUGGUUUUUUG

Variants of: B1
Experiment: polymerase ribozyme fitness, log enrichment relative to wild type (log ratio); higher = more active; in vitro selection for triplet polymerase activity
In short: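 Only genotypes with ≥10 input reads and ≥1 read per output were kept after Illumina sequencing of input and output libraries. These libraries were PCR-built, transcribed mutants of each subunit of a heterodimeric triplet polymerase ribozyme, each put through one triplicate in vitro selection round with frozen incubation at −7 °C, gel excision of extended constructs, streptavidin-bead capture and RT-PCR. Fitness is a logarithmic ratio of genotype enrichment to wild-type enrichment, from inverse-variance-weighted replicate averages, with the logarithm in base 2.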

Variant	polymerase ribozyme fitness (log ratio)
C15U G69A G113C	-5.7
G17A G71A	-4.07
C15U A95G C114G	-4.48
G17A C72U	-2.29
G17A C72G	-3.28
G17A G19U U55A C82A C114A	-3.12
G17C C62G C64U A68U U81G C114G	-6.46
C15U G71U C101U	-1.24
A16U C114U	-4.86
C15U U129C	-1.86
C15U U55G G69A	-3.22
C15U C72U	-1.62
C15U G71A C79U	-1.53
C15G G25C A41U U109A	-5.74
G17A C40U G60A C79G	-6.54
A16U G48C G120A	-1.64
C15G A24G C89G C124G	-6.51
A16G U92C U129C	-3.37
A16G A27G U32C A50G	-4.47
G17A G61A C124U	-2.13
C15U G44U G63C A66U G117U G128A	-6.51

Variant	polymerase ribozyme fitness (log ratio)
C15A C49A C86A A95U G110A C123A	-5.76
C15A G52U C94G	-3.9
G17C C72U	-4.11
C15U A18G U59A G93C C104U	-5.54
A16U G135U	-1.8
C15G A16G C49U C56U G117U	-1.99
C15G A37G A66U	-5.5
C15U A43U G69U C88U A91C G120C	0.39
G17C A18C	-4.12
C15A U32C	-1.58
C15G C56G G57C C72G C104U U131C	-4.86
G17C C34G C99U G110U G127U	-5.7
G17C C85G	-6.06
G17A C94G	-4.81
A16G A41U G60U C86G C124G	-2.13
G17C A41G A91U	-4.31
C15G U59C C86U U116G	-4.2
A16U C124U U129G	0.0068
C15A U106A	-1.94
C15A U106C	-2.44
A16U A18C C86A	-4.71

Variant	polymerase ribozyme fitness (log ratio)
C15U A27C C56G C73U C97U	-6.81
C15U A26G G63C G71A C102U U109G U112A U129A	-3.42
A16U C56A G117U	-3.11
C15U G69U C102A	-1.95
C15U A18U C20U C28G G61U U87G C115U	-5
C15U G39A	-3.08
C15U G39C	-1.93
C15A G117A	-2.72
G17A U21A G39C C56U	-4.02
C15U A37G C64U	-1.81
C15A U133C	-1.06
G17A C40G G60A A83C A84C A121C	-3.61
G17C A41U G51U C64U C104U G120A	-6.91
A16U C40A G51A U92C G113C U116C G117C	-6.65
C15A C20U G48A A91U	-4.59
A16G G61C C72U U81A U106A U116C	1.38
C15U G60A C73U U78A G135U	-1.76
G17A G57C	-2.86
A16G C62U	-1.57
A16C A37C U112C	-2.37
C15U C99U G120C G122U	-3.71

Variant	polymerase ribozyme fitness (log ratio)
G17A G71A C72U C94G C123G	-5.54
A16U G71U	-0.858
G17A G93U	-4.76
G17A C20A C31G G36U A46C C124A	-7.12
C15A A46C	-3.02
C15A A84U	-1.41
G17A G47A A111U	-5.85
C15G C89U A90G	-2.42
A16U G17C C114U	-1.76
C15U U38G G45A G60C A74U	-4.34
C15A C53A C72G A103C G113A G117A	-6.79
A16U C49A C72A	-1.6
A16U G45C C56G C64U A83C	-4.1
C15U U21C C49G G117A	0.389
G17C G61A G120C	-1.39
A16G G42U C49A C56U G61A U96G U109G U134A	-5.05
C15U U54G	-1.23
C15U A50C	-1.84
C15U C73U	-1.36
C15A G35C U87A	-5.96
